Source: the supplement of paper PMC7877785
± gives the uncertainty stated by the source.

Assay: self-splicing fitness, log relative to wild type (ln ratio); higher = more splicing; Tetrahymena group I intron in knt gene, E. coli kanamycin selection, DiMSum; sequences stand for … in CUCUCU…GGAGGGAAAAGUUAUCAGGCAUGCACCUGGUAGCUAGUCUUUAAACCAAUAGAUUGCAUCGGUUUAAAAGGCAAGACCGUCAAAUUGCGGGAAAGGGGUCAACAGCCGUUCAGUACCAAGUCUCAGGGGAAACUUUGAGAUGGCCUUGCAAAGGGUAUGGUAAUAAGCUGACGGACAUGGUCCUAACCACGCAGCCAAGUCCUAAGUCAACAGAUCUUCUGUUGAUAUGGAUGCAGUUCACAGACUAAAUGUCGGUCGGGGAAGAUGUAUUCUUCUCAUAAGAUAUAGUCGGACCUCUCCUUAAUGGGAGCUAGCGGAUGAAGUGAUGCAACACUGGAGCCGCUGGGAACUAAUUUGUAUGCGAAAGUAUAUUGAUUAGUUUUGGAGUACUCGUGGUCG
In short: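 Library with all eight P1ex-region intron nucleotides randomised, intron inside the knt kanamycin-resistance gene on pET-22b(+), in E. coli BL21(DE3). Cells grew overnight at 37°C or 30°C on LB agar with or without 25 μg/mL kanamycin (plus 100 μg/mL carbenicillin, 50 μM IPTG, 0.2% rhamnose), in six replicate transformations. Pooled colonies were amplicon-sequenced on Illumina HiSeq 2500. DiMSum fitness is the error-weighted combination of wild-type-normalised replicate fold changes, kanamycin versus none.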

Sequence | self-splicing fitness (ln) (30 °C) | self-splicing fitness (ln) (37 °C)
GCACAGCAAUAUUACGGAAA | -2.39 ± 0.2 | 0.239 ± 0.16
GCACAGCAAUAUUACGGACC | -1.43 ± 0.11 | 0.156 ± 0.14
GCACAGCAAUAUUACGGCAG | -3.39 ± 0.2 | -1.4 ± 0.16
GCACAGCAAUAUUACGGGCC | – | -1.7 ± 0.21
GCACAGCAAUAUUACGGGCU | -3.81 ± 0.24 | -1.77 ± 0.12
GCACAGCAAUAUUACGGGUU | -1.17 ± 0.041 | -0.667 ± 0.055
GCACAGCAAUAUUACGGUGU | -3.58 ± 0.14 | -3.45 ± 0.29
GCACAGCAAUAUUACGUAAA | -0.808 ± 0.057 | 0.219 ± 0.077
GCACAGCAAUAUUACGUAGC | -2.19 ± 0.089 | -1.64 ± 0.12
GCACAGCAAUAUUACGUCAG | -2.44 ± 0.12 | -2.48 ± 0.21
GCACAGCAAUAUUACGUCGA | -0.827 ± 0.05 | -0.258 ± 0.062
GCACAGCAAUAUUACGUGCC | -5.1 ± 0.29 | –
GCACAGCAAUAUUACGUGCG | -2.65 ± 0.066 | -1.12 ± 0.066
GCACAGCAAUAUUACGUUUC | -1.61 ± 0.063 | -0.982 ± 0.084
GCAGAGCAAUAUUACGAAUU | -3.99 ± 0.42 | -2.05 ± 0.37
GCAGAGCAAUAUUACGACGA | -2.64 ± 0.24 | -0.208 ± 0.12
GCAGAGCAAUAUUACGAUCG | – | -1.33 ± 0.34
GCAGAGCAAUAUUACGCACU | – | -3.43 ± 0.43
GCAGAGCAAUAUUACGCAUA | -3.11 ± 0.22 | -2.89 ± 0.24
GCAGAGCAAUAUUACGCCAA | -2.73 ± 0.38 | -2.72 ± 0.44
GCAGAGCAAUAUUACGCUAU | -2.9 ± 0.33 | -1.32 ± 0.28
GCAGAGCAAUAUUACGCUCU | -3.93 ± 0.44 | –
GCAGAGCAAUAUUACGGACC | -3.65 ± 0.37 | -0.0809 ± 0.29
GCAGAGCAAUAUUACGGACG | – | -2.96 ± 0.29
GCAGAGCAAUAUUACGGAUU | -3.62 ± 0.3 | –

Sequence | self-splicing fitness (ln) (30 °C) | self-splicing fitness (ln) (37 °C)
GCAGAGCAAUAUUACGGCGA | -2.12 ± 0.11 | -1.55 ± 0.11
GCAGAGCAAUAUUACGGCGC | -2.3 ± 0.23 | -1.28 ± 0.41
GCAGAGCAAUAUUACGGGAG | -2.81 ± 0.21 | -2.81 ± 0.32
GCAGAGCAAUAUUACGGGCA | -2.97 ± 0.17 | -1.67 ± 0.15
GCAGAGCAAUAUUACGGGGA | -3.65 ± 0.37 | -2.84 ± 0.36
GCAGAGCAAUAUUACGGUCA | -0.893 ± 0.21 | -0.283 ± 0.14
GCAGAGCAAUAUUACGGUGA | -2.68 ± 0.22 | -2.53 ± 0.24
GCAGAGCAAUAUUACGUAGA | -2.99 ± 0.15 | -1.78 ± 0.14
GCAGAGCAAUAUUACGUCCU | -3.22 ± 0.42 | -0.41 ± 0.27
GCAGAGCAAUAUUACGUCGU | -2.88 ± 0.18 | -0.722 ± 0.16
GCAGAGCAAUAUUACGUGCC | -3.66 ± 0.3 | -2.94 ± 0.3
GCAGAGCAAUAUUACGUGCG | -2.76 ± 0.096 | -0.667 ± 0.1
GCAGAGCAAUAUUACGUGUC | -4.24 ± 0.26 | -2.16 ± 0.21
GCAGAGCAAUAUUACGUUGG | -2.91 ± 0.18 | -1.09 ± 0.19
GCAUAGCAAUAUUACGAAAC | -2.18 ± 0.12 | -0.684 ± 0.1
GCAUAGCAAUAUUACGAAUG | -2.33 ± 0.096 | -1.85 ± 0.12
GCAUAGCAAUAUUACGACCG | -0.896 ± 0.17 | 0.516 ± 0.14
GCAUAGCAAUAUUACGACGA | -1.06 ± 0.14 | -0.364 ± 0.14
GCAUAGCAAUAUUACGAGUA | -1.63 ± 0.15 | -1.23 ± 0.12
GCAUAGCAAUAUUACGAUCC | -0.993 ± 0.19 | 0.0935 ± 0.28
GCAUAGCAAUAUUACGAUCU | -0.849 ± 0.075 | -0.178 ± 0.081
GCAUAGCAAUAUUACGCCCC | -0.129 ± 0.26 | 0.692 ± 0.34
GCAUAGCAAUAUUACGCUAU | -4.09 ± 0.28 | -1.97 ± 0.25
GCAUAGCAAUAUUACGCUCA | -0.595 ± 0.12 | -0.211 ± 0.15
GCAUAGCAAUAUUACGCUCU | -1.81 ± 0.12 | -0.894 ± 0.12

Sequence | self-splicing fitness (ln) (30 °C) | self-splicing fitness (ln) (37 °C)
GCAUAGCAAUAUUACGCUGA | -2.69 ± 0.24 | -1.06 ± 0.14
GCAUAGCAAUAUUACGCUUU | -3.17 ± 0.2 | -2.88 ± 0.18
GCAUAGCAAUAUUACGGAAA | -1.6 ± 0.31 | -1.88 ± 0.25
GCAUAGCAAUAUUACGGAUG | -3.15 ± 0.15 | -0.657 ± 0.13
GCAUAGCAAUAUUACGGCCA | -1.05 ± 0.19 | -1.17 ± 0.21
GCAUAGCAAUAUUACGUACA | -1.56 ± 0.15 | -0.421 ± 0.13
GCAUAGCAAUAUUACGUGAU | -1.64 ± 0.066 | -0.927 ± 0.08
GCAUAGCAAUAUUACGUGCA | -2.74 ± 0.17 | -1.21 ± 0.14
GCAUAGCAAUAUUACGUGCU | -3.32 ± 0.15 | -3.44 ± 0.26
GCAUAGCAAUAUUACGUUAG | -2.48 ± 0.12 | -1.96 ± 0.15
GCAUAGCAAUAUUACGUUGG | -3.88 ± 0.22 | -2.28 ± 0.18
GCAUAGCAAUAUUACGUUUG | -3.21 ± 0.13 | -1.91 ± 0.15
GCCAAGCAAUAUUACGAACA | -2.36 ± 0.16 | -2.2 ± 0.17
GCCAAGCAAUAUUACGAUAC | -2.45 ± 0.17 | -0.963 ± 0.14
GCCAAGCAAUAUUACGAUUU | -2.95 ± 0.096 | -1.15 ± 0.09
GCCAAGCAAUAUUACGCAGU | -2.82 ± 0.13 | -1.22 ± 0.14
GCCAAGCAAUAUUACGCGAA | -1.2 ± 0.1 | -0.257 ± 0.11
GCCAAGCAAUAUUACGCUUA | -1.02 ± 0.086 | -0.264 ± 0.11
GCCAAGCAAUAUUACGGACU | -1.16 ± 0.077 | -0.389 ± 0.1
GCCAAGCAAUAUUACGGAUU | -1.2 ± 0.056 | -0.294 ± 0.08
GCCAAGCAAUAUUACGGGAC | -3.02 ± 0.15 | -0.694 ± 0.099
GCCAAGCAAUAUUACGGGCA | -2.12 ± 0.14 | -0.482 ± 0.12
GCCAAGCAAUAUUACGUAAA | -1.63 ± 0.1 | -0.72 ± 0.13
GCCAAGCAAUAUUACGUGGU | -3.65 ± 0.13 | -3.27 ± 0.17
GCCAAGCAAUAUUACGUGUG | -1.8 ± 0.07 | -0.823 ± 0.08

Sequence | self-splicing fitness (ln) (30 °C) | self-splicing fitness (ln) (37 °C)
GCCAAGCAAUAUUACGUUAG | -1.93 ± 0.12 | -2.64 ± 0.2
GCCAAGCAAUAUUACGUUCU | -2.45 ± 0.081 | -1.53 ± 0.088
GCCCAGCAAUAUUACGAAGC | -2.36 ± 0.19 | -0.479 ± 0.2
GCCCAGCAAUAUUACGAGAU | -1.54 ± 0.12 | -0.957 ± 0.091
GCCCAGCAAUAUUACGAUCA | -1.65 ± 0.11 | -0.633 ± 0.1
GCCCAGCAAUAUUACGAUGA | -2.14 ± 0.18 | -0.287 ± 0.14
GCCCAGCAAUAUUACGAUGU | 0.0553 ± 0.048 | 0.51 ± 0.069
GCCCAGCAAUAUUACGCGUC | -1.17 ± 0.067 | -0.202 ± 0.075
GCCCAGCAAUAUUACGCUGG | -2.86 ± 0.15 | -3.32 ± 0.28
GCCCAGCAAUAUUACGGCAU | -3.47 ± 0.13 | -1.01 ± 0.1
GCCCAGCAAUAUUACGGUAG | -4.78 ± 0.23 | -2.51 ± 0.19
GCCCAGCAAUAUUACGGUCC | -3.39 ± 0.18 | -1.97 ± 0.28
GCCCAGCAAUAUUACGUAAC | -0.899 ± 0.074 | -0.153 ± 0.1
GCCCAGCAAUAUUACGUAUG | -3.42 ± 0.18 | -2.09 ± 0.18
GCCCAGCAAUAUUACGUCAG | -3.98 ± 0.2 | -2.82 ± 0.23
GCCCAGCAAUAUUACGUGAC | -1.38 ± 0.057 | -0.584 ± 0.069
GCCCAGCAAUAUUACGUUGU | -0.273 ± 0.044 | 0.021 ± 0.056
GCCCAGCAAUAUUACGUUUG | -3.95 ± 0.14 | -1.84 ± 0.14
GCCGAGCAAUAUUACGAAAG | -2.81 ± 0.33 | –
GCCGAGCAAUAUUACGACUG | -2.66 ± 0.23 | -3.53 ± 0.42
GCCGAGCAAUAUUACGCCUC | -2.91 ± 0.42 | -1.88 ± 0.4
GCCGAGCAAUAUUACGCGCU | -1.78 ± 0.2 | -2.77 ± 0.34
